Patent publication US20230212222A1 (ANYGEN CO., LTD., priority 2020, published 2023)
Square brackets hold non-standard residues; d marks the D form. Ends that are not written are not given here. Peptide text beside a SMILES is read from it. * marks the point of attachment. 1,3‑difluorobenzhydryl = His with a 1-((2,4-difluorophenyl)(phenyl)methyl) group on the imidazole (N1); His(Trt) = N[C@@H](Cc1cn(C(c2ccccc2)(c2ccccc2)c2ccccc2)cn1)C(=O)O; dHis(Trt) = N[C@H](Cc1cn(C(c2ccccc2)(c2ccccc2)c2ccccc2)cn1)C(=O)O; Biotin = O=C1N[C@H]2[C@H](CS[C@H]2CCCCC(=O)*)N1; His(τ-Bzl) = N[C@@H](Cc1cn(Cc2ccccc2)cn1)C(=O)O; 4‑chlorobenzhydryl = Clc1ccc(C(c2ccccc2)*)cc1; Bip = N[C@@H](Cc1ccc(-c2ccccc2)cc1)C(=O)O; dPhe(4-Br) = N[C@H](Cc1ccc(Br)cc1)C(=O)O; dPhe(4-Cl) = N[C@H](Cc1ccc(Cl)cc1)C(=O)O; dPhe(4-Me) = Cc1ccc(C[C@@H](N)C(=O)O)cc1; Trt = c1ccc(C(c2ccccc2)(c2ccccc2)*)cc1; dPhe(4-F) = N[C@H](Cc1ccc(F)cc1)C(=O)O; Dmt = Cc1cc(O)cc(C)c1C[C@H](N)C(=O)O; Benzhydryl = c1ccc(C(c2ccccc2)*)cc1; Palmitoyl = CCCCCCCCCCCCCCCC(=O)*; Myristoyl = CCCCCCCCCCCCCC(=O)*; Lauroyl = CCCCCCCCCCCC(=O)*; Decanoyl = CCCCCCCCCC(=O)*; Octanoyl = CCCCCCCC(=O)*; SO3H = O=S(=O)(O)*; Bn = c1ccc(C*)cc1

T1: GPR39 (G protein-coupled receptor 39) (Homo sapiens (Human), UniProt O43194 1-453)
T1 sequence: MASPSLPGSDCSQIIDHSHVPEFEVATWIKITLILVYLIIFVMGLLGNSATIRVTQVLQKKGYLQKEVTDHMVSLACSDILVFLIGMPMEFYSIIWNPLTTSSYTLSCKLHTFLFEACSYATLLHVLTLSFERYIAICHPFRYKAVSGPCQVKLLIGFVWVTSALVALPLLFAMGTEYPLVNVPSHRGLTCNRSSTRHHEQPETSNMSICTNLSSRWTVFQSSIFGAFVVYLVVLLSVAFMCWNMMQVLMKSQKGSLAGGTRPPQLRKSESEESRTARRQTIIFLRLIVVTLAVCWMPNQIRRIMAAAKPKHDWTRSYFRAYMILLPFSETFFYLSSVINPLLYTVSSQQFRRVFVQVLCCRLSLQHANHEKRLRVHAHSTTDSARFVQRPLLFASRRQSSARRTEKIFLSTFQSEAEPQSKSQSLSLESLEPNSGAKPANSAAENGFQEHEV

T2: GPR39 (Homo sapiens, UniProt O43194)
T2 sequence (O43194 1-453): T1 sequence

B1: HKFY-32 (peptide)
peptide: H(1,3‑difluorobenzhydryl)K(Octanoyl)[dPhe(4-Me)]Y
B2: HKFY-35 (peptide)
peptide: H(Benzhydryl)K(Octanoyl)[dPhe(4-Me)]Y(SO3H)
B3: HKFY-28 (peptide)
peptide: H(Trt)K(Octanoyl)[dPhe(4-F)]Y
B4: HKFY-48 (peptide)
peptide: H(Trt)K(Octanoyl)YY
B5: HKFY-49 (peptide)
peptide: His(Trt)-Lys(Octanoyl)-Phe
B6: HKFY-45 (peptide)
peptide: Biotin-H(Trt)K(Octanoyl)[Bip]Y
B7: HKFY-21 (peptide)
peptide: H(4‑chlorobenzhydryl)K(Octanoyl)FY
modifications: not fully specified
B8: HKFY-42 (peptide)
peptide: H(Trt)K(Octanoyl)FYHQQARF
modifications: not fully specified; printed as His(trt)-Lys(caprylic)-Phe-Tyr-His-Gln-Gln-Ala-Arg-Phe
B9: HKFY-40 (peptide)
peptide: H(Trt)K(Octanoyl)FYSHQQARF
modifications: not fully specified; printed as His(trt)-Lys(caprylic)-Phe-Tyr-Ser-His-Gln-Gln-Ala-Arg-Phe
B10: HKFY-31 (peptide)
peptide: [dH](Trt)K(Octanoyl)[dPhe(4-Me)]Y
B11: HKFY-47 (peptide)
peptide: H(Trt)K(Octanoyl)YF
B12: HKFY-25 (peptide)
peptide: H(Trt)K(Lauroyl)FY
B13: HKFY-22 (peptide)
peptide: H(4‑methylbenzhydryl)K(Octanoyl)FY
B14: HKFY-24 (peptide)
peptide: H(Trt)K(Decanoyl)FY
B15: HKFY-26 (peptide)
peptide: H(Trt)K(Myristoyl)FY
B16: HKFY-4 (peptide)
peptide: [dH](Trt)K(Octanoyl)FY
B17: HKFY-23 (peptide)
peptide: H(adamantan‑1‑yl)K(Octanoyl)FY
B18: HKFY-43 (peptide)
peptide: H(Trt)K(Octanoyl)FYQNQARF
modifications: not fully specified; printed as His(trt)-Lys(caprylic)-Phe-Tyr-Gln-Asn-Gln-Ala-Arg-Phe
B19: HKFY-39 (peptide)
peptide: H(Trt)K(Octanoyl)FYSQNGARF
modifications: not fully specified; printed as His(trt)-Lys(caprylic)-Phe-Tyr-Ser-Gln-Asn-Gly-Ala-Arg-Phe
B20: HKFY-37 (peptide)
peptide: GSH(Trt)K(Octanoyl)FY
B21: HKFY-29 (peptide)
peptide: H(Trt)K(Octanoyl)[dPhe(4-Br)]Y
B22: HKFY-46 (peptide)
peptide: H(Trt)K(Octanoyl)FW
B23: HKFY-44 (peptide)
peptide: H(Trt)K(Octanoyl)FYW
B24: HKFY-38 (peptide)
peptide: H(Trt)K(Octanoyl)FYSDQQARF
modifications: not fully specified; printed as His(trt)-Lys(caprylic)-Phe-Tyr-Ser-Asp-Gln-Gln-Ala-Arg-Phe
B25: HKFY-41 (peptide)
peptide: H(Trt)K(Octanoyl)FYQNGARF
B26: HKFY-33 (peptide)
peptide: H(Benzhydryl)K(Octanoyl)FY
B27: HKFY-30 (peptide)
peptide: H(Trt)K(Octanoyl)[dPhe(4-Me)]Y
B28: HKFY-36 (peptide)
peptide: H(Benzhydryl)K(Octanoyl)[dPhe(4-Me)][Dmt]
B29: HKFY-3 (peptide)
peptide: H(Bn)K(Octanoyl)FY
B30: HKFY-27 (peptide)
peptide: H(Trt)K(Palmitoyl)FY

The molecules below were run against T1, GPR39 (G protein-coupled receptor 39) (assay: cell-based or functional assay).

| Molecule | EC50 (luciferase reporter) [nM] | ECmax (-fold induction over basal) |
| --- | --- | --- |
| B1 | 2 | 21.5 -fold induction over basal |
| B2 | 280 | 18.9 -fold induction over basal |
| B3 | 74 | 22.9 -fold induction over basal |
| B4 | 330 | 14.4 -fold induction over basal |
| B5 | 320 | 18.3 -fold induction over basal |
| B6 | 140 | 21 -fold induction over basal |
| B7 | 136000 | 18.3 -fold induction over basal |
| B8 | 1580 | 11.8 -fold induction over basal |
| B9 | 1300 | 13.4 -fold induction over basal |
| B10 | 20 | 20.9 -fold induction over basal |
| B11 | 300 | 13 -fold induction over basal |
| B12 | 630 | 7.72 -fold induction over basal |
| B13 | 59800 | 21.3 -fold induction over basal |
| B14 | 240 | 7.03 -fold induction over basal |
| B15 | 280 | 19.8 -fold induction over basal |
| B16 | 130 | 16.8 -fold induction over basal |
| B17 | 2600 | 15 -fold induction over basal |
| B18 | 1210 | 12.1 -fold induction over basal |
| B19 | – | 12.1 -fold induction over basal |
| B20 | 1840 | 16 -fold induction over basal |
| B21 | 310 | 26.8 -fold induction over basal |
| B22 | 260 | 20 -fold induction over basal |
| B23 | 370 | 20 -fold induction over basal |
| B24 | 3500 | 16.5 -fold induction over basal |
| B25 | 9550 | 12.2 -fold induction over basal |
| B26 | 150 | 20 -fold induction over basal |
| B27 | 8 | 23.9 -fold induction over basal |
| B28 | 150 | 9.9 -fold induction over basal |
| B29 | 4130 | 9.2 -fold induction over basal |
| B30 | 560 | 20.4 -fold induction over basal |

Each molecule was assayed against T2, GPR39 (assay: not given).

| Molecule | ECmax (-fold induction over basal) |
| --- | --- |
| CCCCCCCC(=O)NCCCC[C@H](NC(=O)[C@@H](N)Cc1cn(Cc2ccccc2)cn1)C(=O)N[C@@H](Cc1ccccc1)C(=O)N[C@@H](Cc1ccc(O)cc1)C(=O)O [HKFY-3, N2-(Nt-benzyl-L-histidyl)-N6-octanoyl-L-lysyl-L-phenylalanyl-L-tyrosine] (H-[His(τ-Bzl)]K(Octanoyl)FY-OH) | 9.2 ± 2.58 -fold induction over basal |
| CCCCCCCC(=O)NCCCC[C@H](NC(=O)[C@H](N)Cc1cn(C(c2ccccc2)(c2ccccc2)c2ccccc2)cn1)C(=O)N[C@@H](Cc1ccccc1)C(=O)N[C@@H](Cc1ccc(O)cc1)C(=O)O [HKFY-4, N6-octanoyl-N2-(Nt-trityl-D-histidyl)-L-lysyl-L-phenylalanyl-L-tyrosine] (H-[dHis(Trt)]K(Octanoyl)FY-OH) | 16.8 ± 1.87 -fold induction over basal |
| CCCCCCCC(=O)NCCCC[C@H](NC(=O)[C@@H](N)Cc1cn(CCc2ccccc2)cn1)C(=O)N[C@@H](Cc1ccccc1)C(=O)N[C@@H](Cc1ccc(O)cc1)C(=O)O [HKFY-9, N6-octanoyl-N2-(Nt-phenethyl-L-histidyl)-L-lysyl-L-phenylalanyl-L-tyrosine] | 21 ± 2.52 -fold induction over basal |
| CCCCCCCC(=O)NCCCC[C@H](NC(=O)[C@@H](N)Cc1cn(Cc2cccc3ccccc23)cn1)C(=O)N[C@@H](Cc1ccccc1)C(=O)N[C@@H](Cc1ccc(O)cc1)C(=O)O [HKFY-10, N2-(Nt-(naphthalen-1-ylmethyl)-L-histidyl)-N6-octanoyl-L-lysyl-L-phenylalanyl-L-tyrosine] | 14 ± 2.12 -fold induction over basal |
| CCCCCCCC(=O)NCCCC[C@H](NC(=O)[C@@H](N)Cc1cn(CCC2CCCCC2)cn1)C(=O)N[C@@H](Cc1ccccc1)C(=O)N[C@@H](Cc1ccc(O)cc1)C(=O)O [HKFY-11, N2-(Nt-(2-cyclohexylethyl)-L-histidyl)-N6-octanoyl-L-lysyl-L-phenylalanyl-L-tyrosine] | 22 ± 2.2 -fold induction over basal |
| CCCCCCCC(=O)NCCCC[C@H](NC(=O)[C@@H](N)Cc1cn(C(c2ccccc2)(c2ccccc2)c2ccccc2)cn1)C(=O)N[C@H](Cc1ccc(Cl)cc1)C(=O)N[C@H](Cc1ccc(O)cc1)C(=O)O [HKFY-15, ((R)-2-((S)-2-((S)-2-amino-3-(1-trityl-1H-imidazol-4-yl)propanamido)-6-octanamidohexanamido)-3-(4-chlorophenyl)propanoyl)-D-tyrosine] (H-[His(Trt)]K(Octanoyl)[dPhe(4-Cl)][dY]-OH) | 24.7 ± 2.6 -fold induction over basal |
